Assay results as given in patent US20120100070A1.

Target: GLP-1R-GFP stably expressed on HEK293 cells

GLP-1 (L-GLP-1, [Ala8]GLP-1-Ahx-Cys) (peptide)
EC50 of peptide triggered cyclic AMP (cAMP) accumulation: 5 nM
